This note sets out measurements from patent publication US20150098945A1 (Daiichi Sankyo, published 2015).

The assay has as its target T1, human ROBO3 (pCI-hROBO3-transfected HEK293 cells) (human, UniProt Q96MS0 21-1386).
T1 sequence: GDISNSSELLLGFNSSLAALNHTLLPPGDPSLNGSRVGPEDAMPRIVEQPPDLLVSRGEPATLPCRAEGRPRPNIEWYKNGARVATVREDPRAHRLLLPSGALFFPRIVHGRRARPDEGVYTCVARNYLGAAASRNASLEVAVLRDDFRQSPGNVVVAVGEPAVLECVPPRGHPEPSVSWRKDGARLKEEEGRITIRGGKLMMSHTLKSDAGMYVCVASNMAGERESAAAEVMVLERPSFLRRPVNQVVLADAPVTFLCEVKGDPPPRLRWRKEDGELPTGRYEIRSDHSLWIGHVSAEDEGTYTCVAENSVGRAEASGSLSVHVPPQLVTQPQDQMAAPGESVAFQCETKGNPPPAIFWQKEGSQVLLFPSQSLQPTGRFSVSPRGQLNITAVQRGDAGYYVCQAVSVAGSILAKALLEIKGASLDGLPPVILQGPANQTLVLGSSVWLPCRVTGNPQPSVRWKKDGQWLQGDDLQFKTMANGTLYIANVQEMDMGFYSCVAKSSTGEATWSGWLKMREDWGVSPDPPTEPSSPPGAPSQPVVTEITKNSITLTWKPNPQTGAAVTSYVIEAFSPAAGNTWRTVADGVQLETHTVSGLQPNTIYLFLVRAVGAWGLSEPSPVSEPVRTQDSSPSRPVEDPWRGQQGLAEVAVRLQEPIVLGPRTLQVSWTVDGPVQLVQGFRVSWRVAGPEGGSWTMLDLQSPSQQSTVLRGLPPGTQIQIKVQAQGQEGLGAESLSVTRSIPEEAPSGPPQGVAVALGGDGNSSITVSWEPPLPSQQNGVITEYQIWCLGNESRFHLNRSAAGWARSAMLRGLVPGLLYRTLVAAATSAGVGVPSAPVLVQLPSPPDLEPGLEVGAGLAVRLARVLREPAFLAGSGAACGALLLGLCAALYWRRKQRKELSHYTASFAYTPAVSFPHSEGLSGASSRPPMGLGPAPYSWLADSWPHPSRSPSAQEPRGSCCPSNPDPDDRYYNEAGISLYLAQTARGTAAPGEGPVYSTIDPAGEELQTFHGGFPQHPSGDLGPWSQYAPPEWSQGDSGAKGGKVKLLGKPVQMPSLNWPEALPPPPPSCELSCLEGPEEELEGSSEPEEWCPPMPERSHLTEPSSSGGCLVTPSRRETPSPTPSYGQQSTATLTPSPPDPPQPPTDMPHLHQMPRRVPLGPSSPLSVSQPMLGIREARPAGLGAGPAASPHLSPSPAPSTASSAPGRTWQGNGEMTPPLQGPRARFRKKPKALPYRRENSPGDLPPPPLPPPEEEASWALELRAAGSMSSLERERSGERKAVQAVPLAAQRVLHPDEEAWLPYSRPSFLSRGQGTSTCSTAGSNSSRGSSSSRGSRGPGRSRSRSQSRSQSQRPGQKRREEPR
The assay can be described thus: flow cytometry, HEK293 cells transfected with pCI-hROBO3, anti-mouse IgG FITC; control histogram IgG. The method, then: HEK293 cells were inoculated at a concentration of 1.2×10⁶ cells/dish or 1.5×10⁶ cells/dish to a 60-mm dish (manufactured by Corning Inc.) and cultured overnight in a DMEM medium containing 10% FBS at 37° C. under 5% CO₂ conditions. On the next day, the HEK293 cells were transfected with pCI-hROBO4, pCI-FLAG-hROBO1, pCI-hROBO2, or pCI-hROBO3 using FuGENE6 Transfection Reagent and further cultured overnight at 37° C. under 5% CO₂ conditions. On the next day, the expression vector-transfected cells were treated with TrypLE Express (manufactured by Life Technologies Corp.), washed with PBS containing 5% FBS, and then suspended in PBS containing 5% FBS. The obtained cell suspension was used in flow cytometry analysis.
Each cell suspension prepared in 4)-4-1 was centrifuged, and the supernatant was removed. […] Data was analyzed using Flowjo. The histogram of FITC fluorescence intensity was prepared. The antibody was determined to bind in a specific manner when the histogram of MAb1 was shifted to a stronger fluorescence intensity region compared with the histogram of the negative control Mouse IgG1 or Mouse IgG2a. […]
(In general: Flow cytometry measures light scatter and fluorescence of single cells or particles in a stream.)

B1: anti-ROBO4 mouse monoclonal antibody MAb1 (antibody, mouse IgG1, V domains shown)
VH: EVQLVESGGGLVKPGGSLKLSCAASGFTFSTYAMSWVRQTPEKRLEWVATISNGGTYTYYPDSVKGRFTISRDNAENTLYLQMSSLRSEDTAMYFCARLIYYDYLDYWGHGTTLTVSS
VL: DAVMTQTPLSLPVSLGDQASISCRSSQSLENSNGNTYLNWYFQKPGQSPQLLIYRVSNRFSGVLDRFSGSGSGTDFTLKISRVEAEDFGVYFCLQVTHVPWTFGGGTKLEIKR
notes: Mouse IgG1 (gamma1), kappa light chain, purified from hybridoma supernatant; also called parent antibody MAb1
Turning to B1, the binding result is “no binding (tested: 10 µg/mL)”.
